Assay results reported in the supplement of paper PMC10126150.
± gives the standard deviation of the averaged measurements.

Test system: ATP
Test: switch fluorescence ratio, 500 uM ATP over buffer (Cy3 cluster intensity, sum of 5 cycles each) (fold (ratio)); higher = stronger signal-on switching upon ATP binding; sequences stand for … in TCGTCGGCAGCGTCAGATGTGTATAAGAGACAGTTTTTTTTTTTTTTTTTTTTTTTTT…TC
Details: aptamer strand: ATP DNA aptamer (quencher-CACCTGGGGGAGTATTGCGGAGGAAGG + anchor), 100 nM annealed; ATP concentration: 500 uM
In short: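 Cy3-labelled switching-strand clusters on a modified Illumina MiSeq flow-cell were annealed to 100 nM quencher-labelled ATP aptamer, imaged in selection buffer, then imaged after 15 min with 500 uM ATP at 22 °C. Five buffer/ATP cycles ran, with NaOH stripping and re-annealing between them. The fluorescence ratio is summed target-cycle over summed buffer-cycle Cy3 intensity per cluster, averaged per switch-domain sequence. Clusters outside 100-1000 RFU were excluded.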
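Note: ATP exposure 15 min at 22 °C before imaging.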

Sequence | switch fluorescence ratio
CGATGAGTTT | 1.01 ± 0.033
CGATGATGGA | 0.999 ± 0.017
CGATGCGGTG | 1.05 ± 0.033
CGATGGCGTT | 0.96 ± 0.016
CGATGGCTA | 0.965 ± 0.041
CGATGTAGGT | 1.02 ± 0.025
CGATGTAGTA | 1.016 ± 0.0058
CGATGTATTT | 1.01 ± 0.048
CGATGTGGGT | 0.989 ± 0.044
CGATGTTTAG | 0.986 ± 0.019
CGATTACGAT | 1.01 ± 0.03
CGATTAGGGG | 1 ± 0.012
CGATTAGTTG | 0.998 ± 0.032
CGATTCTCAA | 1.021 ± 0.0006
CGATTCTGAG | 1 ± 0.024
CGATTGCGTG | 1 ± 0.05
CGATTGTCTG | 0.958 ± 0.02
CGATTGTGCG | 1.04 ± 0.029
CGATTTCAGA | 1.009 ± 0.01
CGATTTGGGT | 1.02 ± 0.042
CGATTTGTAA | 0.99 ± 0.031
CGATTTTCCT | 1.01 ± 0.015
CGATTTTGAT | 1.01 ± 0.013

Sequence | switch fluorescence ratio
CGCAAAATTT | 1.11 ± 0.11
CGCAAAGGGG | 1.39 ± 0.29
CGCACAGTCA | 1.06 ± 0.023
CGCACGGGGG | 1.01 ± 0.031
CGCAGTTTTA | 1.055 ± 0.0065
CGCATGTACG | 1.14 ± 0.16
CGCATTAAGG | 1.11 ± 0.03
CGCCAGCAGC | 1.6 ± 0.035
CGCCCTCAAG | 1.03 ± 0.029
CGCCGAGTTT | 1.05 ± 0.071
CGCCGTCTGG | 1.03 ± 0.0039
CGCCTCGAGG | 0.9786 ± 0.0027
CGCCTGGCTT | 1 ± 0.013
CGCCTTAATT | 1.01 ± 0.042
CGCGAGGGCC | 1.1 ± 0.08
CGCGATATTG | 1.58 ± 0.018
CGCGCGGAAC | 0.98 ± 0.019
CGCGGAGGGT | 0.967 ± 0.016
CGCGGCAGGA | 1.02 ± 0.019
CGCGGGATGT | 1.02 ± 0.045
CGCGGGGAGC | 1.07 ± 0.088
CGCGGGGGGT | 0.992 ± 0.018
CGCGGGTATT | 1.02 ± 0.017

Sequence | switch fluorescence ratio
CGCGGGTGGT | 1.02 ± 0.012
CGCGGGTTCA | 1.03 ± 0.037
CGCGGTTGAC | 1.12 ± 0.03
CGCGTACATT | 1.05 ± 0.077
CGCGTACGGA | 0.989 ± 0.005
CGCGTTATGT | 1.03 ± 0.0081
CGCGTTGTGG | 1.03 ± 0.012
CGCTACAATG | 1.0456 ± 0.00099
CGCTAGGAGG | 0.997 ± 0.036
CGCTAGGGGA | 1.07 ± 0.041
CGCTAGGGGG | 1.06 ± 0.026
CGCTCAAGGG | 1.031 ± 0.0042
CGCTCGTATT | 1.019 ± 0.009
CGCTCTGCGT | 1.01 ± 0.033
CGCTGAAAGG | 1.02 ± 0.026
CGCTGACATT | 1.019 ± 0.0034
CGCTGAGAGG | 1 ± 0.027
CGCTGCTCGA | 1.06 ± 0.013
CGCTGGTTGT | 0.9855 ± 0.0013
CGCTTATATC | 2.8 ± 0.32
CGCTTATTAA | 1.072 ± 0.0033
CGCTTCGTGA | 1.06 ± 0.059
CGCTTGCCAG | 0.972 ± 0.027

Sequence | switch fluorescence ratio
CGCTTTGGCG | 0.959 ± 0.061
CGCTTTGGGT | 0.99 ± 0.018
CGGAAAAAAT | 1.19 ± 0.19
CGGAAAAGGG | 0.993 ± 0.064
CGGAAAATGT | 0.962 ± 0.016
CGGAACATGC | 1.6 ± 0.12
CGGAACCACG | 1.08 ± 0.045
CGGAACGCA | 2.01 ± 0.046
CGGAACGCGA | 4.09 ± 0.093
CGGAAGATTA | 0.9588 ± 0.0045
CGGAAGCATT | 1.44 ± 0.017
CGGAAGGCTT | 0.982 ± 0.0095
CGGAAGTCTT | 0.992 ± 0.024
CGGAAGTTGG | 0.996 ± 0.02
CGGAATGATA | 1 ± 0.018
CGGAATGGTA | 1.08 ± 0.067
CGGAATGTGT | 1 ± 0.015
CGGAATGTTT | 1.05 ± 0.057
CGGACAGGGA | 1.03 ± 0.035
CGGACAGGGT | 0.992 ± 0.013
CGGACCGGAA | 1.011 ± 0.01
CGGACGGGGG | 0.999 ± 0.036
CGGACGTTGG | 0.973 ± 0.045

Sequence | switch fluorescence ratio
CGGAGAAGGA | 0.98471 ± 0.00067
CGGAGCGGCG | 1.042 ± 0.0095
CGGAGGCAGG | 1.21 ± 0.28
CGGAGGCGTT | 0.986 ± 0.041
CGGAGGGGAA | 1 ± 0.014
CGGAGGGGTA | 1.13 ± 0.16
CGGAGGTAAG | 0.994 ± 0.011
CGGAGTAACG | 1.04 ± 0.03
CGGAGTGAGG | 1.02 ± 0.014
CGGAGTGCGG | 0.983 ± 0.064
CGGAGTGCTT | 1.03 ± 0.021
CGGAGTGGTA | 1.09 ± 0.014
CGGAGTGTGC | 1.23 ± 0.047
CGGAGTTGGA | 1.04 ± 0.041
CGGATCCTTC | 1.02 ± 0.037
CGGATCTCGC | 1.03 ± 0.01
CGGATCTGAA | 1.01 ± 0.016
CGGATCTTGT | 0.961 ± 0.021
CGGATGGCGA | 1.03 ± 0.021
CGGATGTAGC | 1.02 ± 0.063
CGGATGTATA | 0.988 ± 0.014
CGGATGTTGC | 1.03 ± 0.05
CGGATGTTGG | 1.02 ± 0.12

Sequence | switch fluorescence ratio
CGGATTCGAT | 1.01 ± 0.011
CGGATTTGGA | 0.976 ± 0.051
CGGATTTTTT | 0.995 ± 0.021
CGGCAAATAG | 2.52 ± 0.3
CGGCAAGGCT | 1.22 ± 0.1
CGGCACCACA | 1.08 ± 0.015
CGGCATTAAA | 0.995 ± 0.0058
CGGCCCGCGA | 1.94 ± 0.96
CGGCCTGATA | 1.01 ± 0.028
CGGCCTTACC | 1.334 ± 0.0037
CGGCCTTAGA | 0.985 ± 0.029
CGGCGAAGGG | 0.961 ± 0.014
CGGCGAATCC | 1.033 ± 0.0088
CGGCGAGATA | 1.01 ± 0.029
CGGCGCCTGC | 1.08 ± 0.039
CGGCGCGTAG | 1.05 ± 0.031
CGGCGGCTTC | 1.01 ± 0.028
CGGCGTAAAA | 1.13 ± 0.21
CGGCGTCGGG | 1 ± 0.032
CGGCGTTCCG | 1 ± 0.055
CGGCTACCCG | 0.989 ± 0.049
CGGCTATCTC | 1.381 ± 0.011
CGGCTATTAC | 3.64 ± 1.3

Sequence | switch fluorescence ratio
CGGCTCTTTG | 0.985 ± 0.043
CGGCTGGTAC | 1.86 ± 0.027
CGGCTGGTTC | 0.98 ± 0.04
CGGCTGTATG | 0.988 ± 0.035
CGGCTTACCC | 1.14 ± 0.2
CGGCTTACGT | 0.993 ± 0.016
CGGCTTGCTG | 1.03 ± 0.018
CGGCTTTATA | 1.02 ± 0.028
CGGCTTTTGT | 1 ± 0.029
CGGGAAGCAC | 1.53 ± 0.34
CGGGACAAGT | 0.982 ± 0.041
CGGGACACGT | 0.9677 ± 0.0063
CGGGACAGGG | 1 ± 0.013
CGGGACGCGT | 1.021 ± 0.0039
CGGGACGGCA | 1.01 ± 0.017
CGGGAGAACC | 0.9981 ± 0.0082
CGGGAGAGAG | 1.03 ± 0.014
CGGGAGGTA | 1.0174 ± 1.4e-06
CGGGAGTGTC | 0.89727 ± 0.00075
